Kd data for one molecule are collected here from PMC5983706, “A Rationally Designed Hsp70 Variant Rescues the Aggregation-Associated Toxicity of Human IAPP in Cultured Pancreatic Islet β-Cells” (International Journal of Molecular Sciences, 2018).

The assay concerns the target T1, Hsp70 wild type (human Hsp70 1A) (human, UniProt P0DMV8 1-641).
T1 construct: human Hsp70 1A, GenBank entry NP005336; also called Hsp70 WT; heat shock protein 70 kDa
The assay can be described thus: other fluorescence titration; 0.15 µM FAM-hIAPP with 0 to 36 µM chaperone in 50 mM Tris pH 7.4, 150 mM KCl, 5 mM MgCl2, 1 h at room temperature; FAM fluorescence at 520 nm; one-site binding model. The note with it: both partners purified.

Ends that are not written are not given here. FAM = carboxyfluorescein

T1 sequence (P0DMV8 whole entry): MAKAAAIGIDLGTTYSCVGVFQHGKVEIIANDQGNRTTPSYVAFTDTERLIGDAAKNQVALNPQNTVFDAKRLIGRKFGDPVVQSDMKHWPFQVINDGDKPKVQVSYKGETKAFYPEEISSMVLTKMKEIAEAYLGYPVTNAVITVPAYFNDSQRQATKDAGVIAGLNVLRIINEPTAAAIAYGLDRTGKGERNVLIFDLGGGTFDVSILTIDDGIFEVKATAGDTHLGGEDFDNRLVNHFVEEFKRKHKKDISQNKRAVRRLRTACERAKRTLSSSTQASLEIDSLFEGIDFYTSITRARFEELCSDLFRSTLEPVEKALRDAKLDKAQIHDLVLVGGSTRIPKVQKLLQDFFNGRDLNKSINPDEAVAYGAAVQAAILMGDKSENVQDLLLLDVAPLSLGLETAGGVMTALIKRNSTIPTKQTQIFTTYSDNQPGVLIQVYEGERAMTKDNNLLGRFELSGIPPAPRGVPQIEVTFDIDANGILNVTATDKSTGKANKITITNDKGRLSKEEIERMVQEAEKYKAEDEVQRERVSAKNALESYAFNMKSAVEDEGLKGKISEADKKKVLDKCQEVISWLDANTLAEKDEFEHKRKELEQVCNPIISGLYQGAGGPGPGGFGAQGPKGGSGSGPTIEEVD

B1: FAM-hIAPP (human islet amyloid polypeptide N-terminally labelled with carboxyfluorescein) (peptide, UniProt P10997 34-70, looked up)
peptide: {FAM}-KCNTATCATQRLANFLVHSSNNFGAILSSTNVGSNTY
modifications: ends and bridges not checked
notes: human islet amyloid polypeptide (hIAPP, amylin), the mature hormone cut from its precursor; also called amylin; source: bought: Phoenix Pharmaceuticals
Regarding B1, binding was characterised by a dissociation constant (Kd) of 2.2 ± 0.3 µM.
